Measurements as given in patent US9109237B2, “Method of preparing piceatannol using bacterial cytochrome P450 and composition therefor” (priority 2008, dated 2015).

T1: human CYP1A2 (Homo sapiens, UniProt P05177)
T1 sequence (P05177 1-516): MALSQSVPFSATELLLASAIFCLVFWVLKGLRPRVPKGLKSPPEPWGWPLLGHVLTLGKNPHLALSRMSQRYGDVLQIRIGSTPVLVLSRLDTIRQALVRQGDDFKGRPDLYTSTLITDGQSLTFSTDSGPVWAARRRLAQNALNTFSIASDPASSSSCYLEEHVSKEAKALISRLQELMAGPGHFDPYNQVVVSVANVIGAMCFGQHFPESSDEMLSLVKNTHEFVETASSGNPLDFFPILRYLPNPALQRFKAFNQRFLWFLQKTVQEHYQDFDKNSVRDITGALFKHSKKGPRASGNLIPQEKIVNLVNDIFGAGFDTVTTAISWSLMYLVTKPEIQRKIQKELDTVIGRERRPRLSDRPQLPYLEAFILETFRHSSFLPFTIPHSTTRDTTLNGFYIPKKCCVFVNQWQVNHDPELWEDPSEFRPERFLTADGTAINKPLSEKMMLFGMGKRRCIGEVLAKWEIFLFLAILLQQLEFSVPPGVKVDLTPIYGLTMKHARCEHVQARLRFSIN

B1: human CYP1A2: Human cytochrome P450 1A2, prepared as disclosed by Kim et al. (2008c); comparison enzyme (protein, UniProt P05177 2-516, looked up)
Cytochrome P450 1A2: ALSQSVPFSATELLLASAIFCLVFWVLKGLRPRVPKGLKSPPEPWGWPLLGHVLTLGKNPHLALSRMSQRYGDVLQIRIGSTPVLVLSRLDTIRQALVRQGDDFKGRPDLYTSTLITDGQSLTFSTDSGPVWAARRRLAQNALNTFSIASDPASSSSCYLEEHVSKEAKALISRLQELMAGPGHFDPYNQVVVSVANVIGAMCFGQHFPESSDEMLSLVKNTHEFVETASSGNPLDFFPILRYLPNPALQRFKAFNQRFLWFLQKTVQEHYQDFDKNSVRDITGALFKHSKKGPRASGNLIPQEKIVNLVNDIFGAGFDTVTTAISWSLMYLVTKPEIQRKIQKELDTVIGRERRPRLSDRPQLPYLEAFILETFRHSSFLPFTIPHSTTRDTTLNGFYIPKKCCVFVNQWQVNHDPELWEDPSEFRPERFLTADGTAINKPLSEKMMLFGMGKRRCIGEVLAKWEIFLFLAILLQQLEFSVPPGVKVDLTPIYGLTMKHARCEHVQARLRFSIN
B2: WT: BM3 wild type; bacterial cytochrome P450 BM3 (CYP102A1) from Bacillus megaterium, SEQ ID NO:16 (protein, listed as Bacillus megaterium)
chain: TIKEMPQPKTFGELKNLPLLNTDKPVQALMKIADELGEIFKFEAPGRVTRYLSSQRLIKEACDESRFDKNLSQALKFVRDFAGDGLFTSWTHEKNWKKAHNILLPSFSQQAMKGYHAMMVDIAVQLVQKWERLNADEHIEVPEDMTRLTLDTIGLCGFNYRFNSFYRDQPHPFITSMVRALDEAMNKLQRANPDDPAYDENKRQFQEDIKVMNDLVDKIIADRKASGEQSDDLLTHMLNGKDPETGEPLDDENIRYQIITFLIAGHETTSGLLSFALYFLVKNPHVLQKAAEEAARVLVDPVPSYKQVKQLKYVGMVLNEALRLWPTAPAFSLYAKEDTVLGGEYPLEKGDELMVLIPQLHRDKTIWGDDVEEFRPERFENPSAIPQHAFKPFGNGQRACIGQQFALHEATLVLGMMLKHFDFEDHTNYELDIKETLTLKPEGFVVKAKSKKIPLGGIPSPSTEQSAKKVRKKAENAHNTPLLVLYGSNMGTAEGTARDLADIAMSKGFAPQVATLDSHAGNLPREGAVLIVTASYNGHPPDNAKQFVDWLDQASADEVKGVRYSVFGCGDKNWATTYQKVPAFIDETLAAKGAENIADRGEADASDDFEGTYEEWREHMWSDVAAYFNLDIENSEDNKSTLSLQFVDSAADMPLAKMHGAFSTNVVASKELQQPGSARSTRHLEIELPKEASYQEGDHLGVIPRNYEGIVNRVTARFGLDASQQIRLEAEEEKLAHLPLAKTVSVEELLQYVELQDPVTRTQLRAMAAKTVCPPHKVELEALLEKQAYKEQVLAKRLTMLELLEKYPACEMKFSEFIALLPSIRPRYYSISSSPRVDEKQASITVSVVSGEAWSGYGEYKGIASNYLAELQEGDTITCFISTPQSEFTLPKDPETPLIMVGPGTGVAPFRGFVQARKQLKEQGQSLGEAHLYFGCRSPHEDYLYQEELENAQSEGIITLHTAFSRMPNQPKTYVQHVMEQDGKKLIELLDQGAHFYICGDGSQMAPAVEATLMKSYADVHQVSEADARLWLQQLEEKGRYAKDVWAG

How the values were obtained:
human CYP1A2 = molecular target: T1, human CYP1A2; settings: cited from earlier work
[1] = Kinetic parameters of piceatannol formation (3'-hydroxylation of resveratrol); assay type: biochemical
Method: Oxidation of trans-resveratrol, a substrate of human CYP1A2, by CYP102A1 was identified. Typical steady-state reactions for trans-resveratrol hydroxylation included 50 pmol P450 BM3 in 0.25 ml of a 100 mM potassium phosphate buffer (pH 7.4) were performed along with a specified amount of a substrate. To determine the kinetic parameter of several CYP102A1 mutants, 2 to 100 μM of trans-resveratrol was used. An NADPH-generating system was used to initiate reaction solutions (final concentrations: 10 mM glucose 6-phosphate, 0.5 mM NADP+, and 1 IU yeast glucose 6-phosphate per ml). Trans-resveratrol stocks (20 mM) were prepared in DMSO and diluted into the enzyme reactions with the final organic solvent concentration <1% (v/v). […]
After centrifugation of the reaction mixture, the supernatant was analyzed by HPLC (Piver et al. 2004). […] Eluates were detected by UV rays at 320 nm.
Kinetic parameters (Km and kcat) were determined using nonlinear regression analysis with GraphPad PRISM software (GraphPad, San Diego, Calif., USA). The data were analyzed using the standard Michaelis-Menten equation: v=kcat[E][S]/([S]+Km), where the velocity of the reaction is a function of the rate-limiting step in turnover (kcat), the enzyme concentration ([E]), substrate concentration ([S]), and the Michaelis constant (Km).

[2] = Resveratrol metabolite profile by HPLC and GC-MS; assay type: biochemical; settings: HPLC, UV 320 nm
Method: (§1) Oxidation of trans-resveratrol, a substrate of human CYP1A2, by CYP102A1 was identified. Typical steady-state reactions for trans-resveratrol hydroxylation included 50 pmol P450 BM3 in 0.25 ml of a 100 mM potassium phosphate buffer (pH 7.4) were performed along with a specified amount of a substrate. To determine the kinetic parameter of several CYP102A1 mutants, 2 to 100 μM of trans-resveratrol was used. An NADPH-generating system was used to initiate reaction solutions (final concentrations: 10 mM glucose 6-phosphate, 0.5 mM NADP+, and 1 IU yeast glucose 6-phosphate per ml). Trans-resveratrol stocks (20 mM) were prepared in DMSO and diluted into the enzyme reactions with the final organic solvent concentration <1% (v/v). Reactions were generally incubated for 10 min at 37° C., and terminated with 105 μl of ice-cold acetic acid/methanol (95/5, v/v).
After centrifugation of the reaction mixture, the supernatant was analyzed by HPLC (Piver et al. 2004). Samples (30 μl) were injected into a Gemini C18 column (4.6 mm×150 mm, 5 μm, Phenomenex, Torrance, Calif.). The mobile phase A was water containing 87 mM of 0.5% acetic acid/acetonitrile (95/5, v/v); whereas the mobile phase B was acetonitrile/0.5% acetic acid (95/5, v/v). […] Eluates were detected by UV rays at 320 nm. […]

[3] = Rates of piceatannol formation (trans-resveratrol hydroxylation) at fixed substrate concentration, HPLC; assay type: biochemical; settings: fixed substrate concentration 100 μM trans-resveratrol
Method: as §1
After centrifugation of the reaction mixture, the supernatant was analyzed by HPLC (Piver et al. 2004). Samples (30 μl) were injected into a Gemini C18 column (4.6 mm×150 mm, 5 μm, Phenomenex, Torrance, Calif.). […] Eluates were detected by UV rays at 320 nm.
The ability of wild-type P450 BM3 and mutants of P450 BM3 to oxidize trans-resveratrol was measured at a fixed substance concentration (100 μM).

| Molecule | Inhibition of human CYP1A2 (in words) (human CYP1A2) | Kinetic parameters, result in words [1] | Metabolites produced on oxidation of resveratrol [2] | Rate of piceatannol formation [3] |
| --- | --- | --- | --- | --- |
| Oc1cc(O)cc(C=Cc2ccc(O)c(O)c2)c1 [Piceatannol, 3,5,3′,4′-tetrahydroxystilbene] | potent inhibitor | – | – | – |
| Oc1ccc(C=Cc2cc(O)cc(O)c2)cc1 [Resveratrol, 3,4′,5-trihydroxystilbene] | substrate and inhibitor | – | – | – |
| B1 | – | kinetic parameters could not be obtained | two major metabolites: piceatannol and other hydroxylated products | – |
| B2 | – | – | only one major metabolite | 0.22 ± 0.01 nmol product/min/nmol P450 |
